{"source": "paper PMC11167000", "about": "“Molecular mechanism of BMP signal control by Twisted gastrulation” (Nature Communications, 2024)", "binders": {"B1": {"name": "human BMP2 (ligand, UniProt P12643 283-396, looked up)", "chain": "QAKHKQRKRLKSSCKRHPLYVDFSDVGWNDWIVAPPGYHAFYCHGECPFPLADHLNSTNHAIVQTLVNSVNSKIPKACCVPTELSAISMLYLDENEKVVLKNYQDMVVEGCGCR", "notes": "Bone morphogenetic protein 2 (BMP2), human; it speaks of BMP ligands in general as dimeric"}, "B2": {"name": "human BMP7 (ligand, UniProt P18075 293-431, looked up)", "chain": "STGSKQRSQNRSKTPKNQEALRMANVAENSSSDQRQACKKHELYVSFRDLGWQDWIIAPEGYAAYYCEGECAFPLNSYMNATNHAIVQTLVHFINPETVPKPCCAPTQLNAISVLYFDDSSNVILKKYRNMVVRACGCH", "notes": "Bone morphogenetic protein 7 (BMP7), human; source: bought: Miltenyi Biotec"}, "B3": {"name": "human Twisted gastrulation (TWSG1), full-length glycosylated TWSG1 (Cys26–Phe223) (natural protein)", "chain": "ETGCNKALCASDVSKCLIQELCQCRPGEGNCSCCKECMLCLGALWDECCDCVGMCNPRNYSDTPPTSKSTVEELHEPIPSLFRALTEGDTQLNWNIVSFPVAEELSHHENLVSFLETVNQPHHQNVSVPSNNVHAPYSSDKEHMCTVVYFDDCMSIHQCKISCESMGASKYRWFHNACCECIGPECIDYGSKTVKCMNCMF", "modifications": "Asn-linked glycans (predicted at Asn 52, 81 and 147); fully glycosylated for binding, cellular and SEC-MALS assays; cut down to one N-acetylglucosamine with endoglycosidase F1 for crystallization", "notes": "residues of the vector between the secretion signal and TWSG1; Twisted gastrulation (TWSG1), human, UniProt Q9GZX9, residues C26–F223; Monomer-dimer equilibrium in solution; also called full-length TWSG1; wild-type TWSG1; source: HEK-293T, transient transfection, secreted, purified (IMAC, SEC)"}, "B4": {"name": "human TWSG1 C-terminal domain (TWSG1 CTD, T85–F223) (domain or fragment)", "chain": "ETGTPPTSKSTVEELHEPIPSLFRALTEGDTQLNWNIVSFPVAEELSHHENLVSFLETVNQPHHQNVSVPSNNVHAPYSSDKEHMCTVVYFDDCMSIHQCKISCESMGASKYRWFHNACCECIGPECIDYGSKTVKCMNCMF", "notes": "residues of the vector between the secretion signal and the TWSG1 domain; Twisted gastrulation (TWSG1), human, C-terminal domain, residues T85–F223; The methods sentence on this construct says 'followed by ETG, TWSG1 NTD' where CTD must be meant; The structural description gives the CTD as Pro87–Phe223; source: expressed and purified from dialyzed media using IMAC followed by SEC as the …"}, "B5": {"name": "human CHRDL2 (A25–T429) (natural protein)", "chain": "ETGARARPDMFCLFHGKRYSPGESWHPYLEPQGLMYCLRCTCSEGAHVSCYRLHCPPVHCPQPVTEPQQCCPKCVEPHTPSGLRAPPKSCQHNGTMYQHGEIFSAHELFPSRLPNQCVLCSCTEGQIYCGLTTCPEPGCPAPLPLPDSCCQACKDEASEQSDEEDSVQSLHGVRHPQDPCSSDAGRKRGPGTPAPTGLSAPLSFIPRHFRPKGAGSTTVKIVLKEKHKKACVHGGKTYSHGEVWHPAFRAFGPLPCILCTCEDGRQDCQRVTCPTEYPCRHPEKVAGKCCKICPEDKADPGHSEISSTRCPKAPGRVLVHTSVSPSPDNLRRFALEHEASDLVEIYLWKLVKGIFHLTQIKKVRKQDFQKEAQHFRLLAGPHEGHWNVFLAQTLELKVTASPDKVTKT", "modifications": "Asn-linked glycan (predicted at Asn 114)", "notes": "residues of the vector between the secretion signal and CHRDL2; Chordin-like protein 2 (CHRDL2), human, UniProt Q6WN34, residues A25–T429; also called Chordin superfamily member CHRDL2; source: expressed and purified from dialyzed media using IMAC followed by SEC as the full-length TWSG1"}, "B6": {"name": "human TWSG1 N-terminal domain (TWSG1 NTD, C26–S83) (domain or fragment)", "chain": "ETGCNKALCASDVSKCLIQELCQCRPGEGNCSCCKECMLCLGALWDECCDCVGMCNPRNYS", "notes": "residues of the vector between the secretion signal and TWSG1 NTD; Twisted gastrulation (TWSG1), human, N-terminal domain, residues C26–S83; Treated with endoglycosidase F1 in the purification described; The structural description gives the NTD as Cys26–Arg80; source: expressed and purified from dialyzed media similar to full-length TWSG1 (IMAC, HRV 3C cleavage, IMAC, SEC); not shown: mono Venus …"}, "B7": {"name": "human Growth Differentiation Factor 5 (GDF5, A382–R501) (ligand)", "chain": "MAPLATRQGKRPSKNLKARCSRKALHVNFKDMGWDDWIIAPLEYEAFHCEGLCEFPLRSHLEPTNHAVIQTLMNSMDPESTPPTCCVPTRLSPISILFIDSANNVVYKQYEDMVVESCGCR", "notes": "N-terminal methionine of the expression construct; Growth differentiation factor 5 (GDF5), human, UniProt P43026, residues A382–R501, no tags; Disulfide-linked dimer"}}, "key": {"[1]": {"target": "B3", "assay": "SPR; equilibrium binding, Biacore T200, 25 °C; BMP2, BMP7, GDF5 or CHRDL2 amine-coupled to a CM5 chip, TWSG1 proteins as analytes; 0.15 M NaCl, 20 mM HEPES pH 7.5, 2 mM CaCl2, 0.005% Tween 20; 1:1 binding isotherm", "details": "both partners purified"}, "TWSG1 Ile40Ala": {"target": "TWSG1 Ile40Ala (human, UniProt Q9GZX9 26-223, Ile40Ala, Asn-linked glycans (predicted Asn52, Asn81, Asn147; fully glycosylated, HEK-type expression without kifunensine); disulfide-rich. Parent construct inferred: the methods state that the C26-F223 constru)", "assay": "SPR; as a1, BMP7 immobilized at higher level (7372 RU)", "details": "both partners purified"}, "[2]": {"target": "the molecule itself", "assay": "SEC-MALS; Superdex 200 HR 10/30, 150 mM NaCl, 10 mM HEPES pH 7.5, 2 mM CaCl2, 21 °C; proteins at 2 mg/ml, 0.1 ml per injection"}, "human CHRDL2 (A25–T429) [3]": {"target": "B5", "assay": "SEC-MALS; Superdex 200 HR 10/30, 150 mM NaCl, 10 mM HEPES pH 7.5, 2 mM CaCl2, 21 °C; proteins at 2 mg/ml, 0.1 ml per injection", "details": "both partners purified"}, "human BMP7": {"target": "B2", "assay": "SPR; equilibrium binding, Biacore T200, 25 °C; BMP2, BMP7, GDF5 or CHRDL2 amine-coupled to a CM5 chip, TWSG1 proteins as analytes; 0.15 M NaCl, 20 mM HEPES pH 7.5, 2 mM CaCl2, 0.005% Tween 20; 1:1 binding isotherm", "details": "both partners purified"}, "[4]": {"target": "B7", "assay": "SPR; equilibrium binding, Biacore T200, 25 °C; BMP2, BMP7, GDF5 or CHRDL2 amine-coupled to a CM5 chip, TWSG1 proteins as analytes; 0.15 M NaCl, 20 mM HEPES pH 7.5, 2 mM CaCl2, 0.005% Tween 20; 1:1 binding isotherm", "details": "both partners purified"}, "human CHRDL2 (A25–T429) [5]": {"target": "B5", "assay": "SPR; equilibrium binding, Biacore T200, 25 °C; BMP2, BMP7, GDF5 or CHRDL2 amine-coupled to a CM5 chip, TWSG1 proteins as analytes; 0.15 M NaCl, 20 mM HEPES pH 7.5, 2 mM CaCl2, 0.005% Tween 20; 1:1 binding isotherm", "details": "both partners purified"}, "human BMP2": {"target": "B1", "assay": "SPR; equilibrium binding, Biacore T200, 25 °C; BMP2, BMP7, GDF5 or CHRDL2 amine-coupled to a CM5 chip, TWSG1 proteins as analytes; 0.15 M NaCl, 20 mM HEPES pH 7.5, 2 mM CaCl2, 0.005% Tween 20; 1:1 binding isotherm", "details": "both partners purified"}, "[6]": {"target": "the molecule itself", "assay": "crystal structure; TWSG1 NTD and GDF5 mixed 1:1 mol:mol, crystallized with CaCl2; 1.96 Å"}}}
{"binder": "B1", "values": [{"measurement": "binding result", "setting": "[1]", "value": "binds"}]}
{"binder": "B2", "values": [{"measurement": "Kd", "setting": "TWSG1 Ile40Ala", "value": 454000, "unit": "nM"}, {"measurement": "binding result", "setting": "[1]", "value": "binds"}]}
{"binder": "B3", "values": [{"measurement": "stoichiometry N", "setting": "[2]", "value": 2}, {"measurement": "binding result", "setting": "human CHRDL2 (A25–T429) [3]", "value": "binds"}]}
{"binder": "B4", "values": [{"measurement": "fold weaker than the TWSG1 NTD", "setting": "human BMP7", "value": "~100", "unit": "fold"}, {"measurement": "fold weaker than the TWSG1 NTD", "setting": "[4]", "value": "~100", "unit": "fold"}, {"measurement": "Kd", "setting": "human CHRDL2 (A25–T429) [5]", "value": 460, "unit": "nM"}, {"measurement": "fold weaker than the TWSG1 NTD", "setting": "human BMP2", "value": "~100", "unit": "fold"}]}
{"binder": "B5", "values": [{"measurement": "binding result", "setting": "[2]", "value": "binds"}]}
{"binder": "B6", "values": [{"measurement": "Kd", "setting": "human BMP7", "value": 94, "unit": "nM"}, {"measurement": "Kd", "setting": "[4]", "value": 380, "unit": "nM"}, {"measurement": "Kd", "setting": "human BMP2", "value": 1010, "unit": "nM"}]}
{"binder": "B7", "values": [{"measurement": "binding result", "setting": "[6]", "value": "binds"}, {"measurement": "binding result", "setting": "[1]", "value": "binds"}]}
